Experimental findings from US20100048677A1 (NEW YORK BLOOD CENTER, published 2010) are described below.

Sequences and labels used below:
B1: DNAJC10 (DNAJ (HSP40) HOMOLOG, SUBFAMILY C, MEMBER 10) (other)
chain: DQDFYSLLGVSKTASSREIRQAFKKLALKLHPDKNPNNPNAHGDFLKINRAYEVLKDEDLRKKYDKYGEKGLEDNQGGQYESWNYYRYDFGIYDDDPEIITLERREFDAAVNSGELWFVNFYSPGCSHCHDLAPTWRDFAKEVDGLLRIGAVNCGDDRMLCRMKGVNSYPSLFIFRSGMAPVKYHGDRSKESLVSFAMQHVRSTVTELWTGNFVNSIQTAFAAGIGWLITFCSKGGDCLTSQTRLRLSGMLDGLVNVGWMDCATQDNLCKSLDITTSTTAYFPPGATLNNKEKNSILFLNSLDAKEIYLEVIHNLPDFELLSANTLEDRLAHHRWLLFFHFGKNENSNDPELKKLKTLLKNDHIQVGRFDCSSAPDICSNLYVFQPSLAVFKGQGTKEYEIHHGKKILYDILAFAKESVNSHVTTLGPQNFPANDKEPWLVDFFAPWCPPCRALLPELRRASNLLYGQLKFGTLDCTVHEGLCNMYNIQAYPTTVVFNQSNIHEYEGHHSAEQILEFIEDLMNPSVVSLTPTTFNELVTQRKHNEVWMVDFYSPWCHPCQVLMPEWKRMARTLTGLINVGSIDCQQYHSFCAQENVQRYPEIRFFPPKSNKAYHYHSYNGWNRDAYSLRIWGLGFLPQVSTDLTPQTFSEKVLQGKNHWVIDFYAPWCGPCQNFAPEFELLARMIKGKVKAGKVDCQAYAQTCQKAGIRAYPTVKFYFYERAKRNFQEEQINTRDAKAIAALISEKLETLRNQGKRNKDEL
notes: Endogenous protein in lysates of human UCB-derived megakaryocytes or HEK293 cells

The first experiment has as its target αIIbβ3 (human) (UniProt P08514). The experiment is described as follows: antibody staining of UCB-derived megakaryocytes, after thrombin receptor-activating peptide.
Turning to “PAC1, an activation-dependent, ligand-mimetic anti-αIIbβ3 monoclonal antibody”, the percentage of UCB cells recognized is 16%.

For a further experiment the target is unchanged. Description: antibody staining of UCB-derived megakaryocytes, before thrombin receptor-activating peptide.
On to “PAC1, an activation-dependent, ligand-mimetic anti-αIIbβ3 monoclonal antibody”, for which the percentage of UCB cells recognized was 3%.

Another experiment addresses T1, mature αIIbβ3 complex (human, UniProt P08514 32-887; P08514 891-1039; P05106 27-788).
T1 construct: Endogenous, from megakaryocyte lysates
The experiment is described as follows: co-immunoprecipitation with conformation-specific mAb M148, immunoblot for DNAJC10. (In general: In western blotting, separated proteins are transferred to a membrane and probed.)
For B1, the binding result is reported as “no binding”.

In a further experiment the target is αIIb (INTEGRIN, ALPHA 2B; PLATELET GLYCOPROTEIN IIB OF IIB/IIIA COMPLEX, ANTIGEN CD41) (human) (UniProt P08514). The experiment is described as follows: αIIb complexes captured, mass spectrometry; No. Expts 2.
The molecule “5′-NUCLEOTIDASE DOMAIN CONTAINING 2 (from UniProt Q9H857 1-520)” yielded a #Peptides of 34 peptides.
Still for that read-out and setting: in the case of “ALDEHYDE DEHYDROGENASE 18 FAMILY, MEMBER A1 (from UniProt P54886 1-795)” it was 16 peptides; in that of “CHAPERONIN CONTAINING TCP1, SUBUNIT 2 (BETA) (from UniProt P78371 2-535)”, 20 peptides; in that of “DEAH (ASP-GLU-ALA-HIS) BOX PO… 15 (from UniProt O43143 1-795)”, 68 peptides.
As to “DYNAMIN BINDING PROTEIN (from UniProt Q6XZF7 1-1577)”, the #Peptides amounted to 30 peptides.
On the same count and under the same terms, next, “FILAMIN A, ALPHA (ACTIN BINDING PROTEIN 280) (from UniProt P21333 2-2647)”: 14 peptides; “HEAT SHOCK 70 kDa PROTEIN 8 (from UniProt P11142 2-646)”: 11 peptides.
Same read-out and setting: in the case of “HETEROGENEOUS NUCLEAR RIBONUCLEOPROTEIN L (from UniProt P14866 1-589)” it was 26 peptides; in that of “TUBULIN, BETA (from UniProt P07437 1-444)”, 52 peptides.

The target is the same in another experiment. Description: αIIb complexes captured, mass spectrometry; No. Expts 1.
For the molecule “SPLICING FACTOR 1 (from UniProt Q15637 2-639)”, the #Peptides amounted to 4 peptides.
Same read-out and setting: next, “SRY (SEX … REGION Y)-BOX 6 (from UniProt P35712 1-828)”: 2 peptides.
Still for that read-out and setting: next, “STATHMIN-LIKE 3 (from UniProt Q9NZ72 1-180)”: 2 peptides; “TRANSLOCASE OF INNER MITOCHONDRIAL MEMBRANE 50 HOMOLOG (from UniProt Q3ZCQ8 45-353)”: 4 peptides.
The same measure, in the same setting: in the case of “TRYPTOPHANYL TRNA … 2 (from UniProt Q9UGM6 19-360)” it was 5 peptides.
The molecule “TUBULIN, BETA 2C (from UniProt P68371 1-445)” came in with a #Peptides of 36 peptides.
Same read-out and setting: in the case of “TUBULIN, BETA 4 (from UniProt P04350 1-444)” it was 14 peptides; in that of “U2(RNU2) SMALL NUCLEAR RNA AUXILIARY FACTOR 1 (from UniProt Q01081 2-240)”, 1 peptides.
On the same count and under the same terms, in the case of “UBR4 (ZINC FINGER, UBR1 TYPE 1) (from UniProt Q5T4S7 1-5183)” it was 8 peptides; in that of “UDP-GLUCOSE PYROPHOSPHORYLASE 1 (from UniProt Q16851 1-508)”, 13 peptides; in that of “ZINC FINGER PROTEIN 300 (from UniProt Q96RE9 1-604)”, 3 peptides.
Still for that read-out and setting: in the case of “ZINC FINGER PROTEIN 703 (from UniProt Q9H7S9 2-590)” it was 2 peptides; in that of … (from UniProt P02787 20-698), 7 peptides; in that of “… CYCLASE 6 (from UniProt O43306 1-1168)”, 4 peptides.
“… EXPRESSED 10 (from UniProt Q86TG7 1-708)” had a #Peptides of 3 peptides.
Same read-out and setting: in the case of “…, DSH HOMOLOG 2 (DROSOPHILA) (from UniProt O14641 1-736)” it was 3 peptides.
Same read-out and setting: next, “…-3-PHOSPHATE DEHYDROGENASE (from UniProt P04406 2-335)”: 3 peptides.
Still for that read-out and setting: next, …-TRNA … 2 (from UniProt O95363 1-451): 13 peptides; …-TRNA … 2 (from UniProt Q96I59 15-477): 2 peptides; …-… 9 (from UniProt Q86TI2 2-863): 20 peptides.

The target is the same in a further experiment. The experiment is described as follows: αIIb complexes captured, mass spectrometry; No. Expts 4.
Take “ASPARTYL-TRNA … (from UniProt P14868 1-501)”: the #Peptides is 65 peptides.

Another experiment has the same target. The experiment is described as follows: αIIb complexes captured, mass spectrometry; No. Expts 3.
“GLUTAMATE DEHYDROGENASE 1 (from UniProt P00367 54-558)” yielded a #Peptides of 83 peptides.
Same read-out and setting: in the case of KIAA1529 (from UniProt Q9P1Z9 1-1701) it was 62 peptides; in that of “PLASMINOGEN (from UniProt P00747 20-810)”, 22 peptides.
Same read-out and setting: next, “SHROOM3 F-ACTIN BINDING PROTEIN (from UniProt Q8TF72 1-1996)”: 7 peptides.
Still for that read-out and setting: in the case of “THIOREDOXIN DOMAIN CONTAINING 4 (ENDOPLASMIC RETICULUM) (from UniProt Q9BS26 30-406)” it was 20 peptides.
